Experimental data reported in patent publication US20200308294A1 (published 2020).

What was measured:
VEGF = VEGF (UniProt P15692); assay: VEGF co-incubated with AB160, particulate removed, free VEGF in the supernatant measured by ELISA
[1] = target: AB160 (nanoparticle of albumin-bound paclitaxel and bevacizumab, ratio about 10:4, average size 160 nm) (UniProt P02768); assay: flow cytometry of particles stained with goat anti-mouse IgG and PE detection
[2] = target: ABRAXANE (albumin-bound paclitaxel) (UniProt P02768); assay: flow cytometry of particles stained with goat anti-mouse IgG and PE detection; ABX alone as comparison
[3] = target: T1, ABRAXANE (albumin-bound paclitaxel) (UniProt P02768 25-609, non-covalently bound paclitaxel (nanoparticle of about 130 nm)); assay: VEGF co-incubated with ABX for 2 hours, particulate spun down, free VEGF in the supernatant measured by ELISA
T1 construct: A nanoparticle of many albumin molecules with paclitaxel, not a single protein; also called ABX; Paclitaxel Albumin-stabilized Nanoparticle Formulation
Protocol: The VEGF was incubated with the nanoparticles for 2 hours at room temperature. The suspension was spun at 6000 rpm for 15 minutes, supernatants were collected and free VEGF was measured by ELISA. Briefly, ELISA plates were coated with capture antibody overnight at 4° C. Plates were washed, blocked and standards and samples were added. After washing, detection antibody was added and plates were developed with substrate (R and D Systems, Minneapolis, Minn.). […] The concentration of unbound VEGF was determined with a standard curve from 0 to 2000 μg/ml.

AB160 (nanoparticle of albumin-bound paclitaxel and bevacizumab, ratio about 10:4, average size 160 nm) (from UniProt P02768 25-609)
% VEGF unbound (VEGF): < 10%

goat anti-mouse IgG (antibody)
% positive [1]: 41.2% | % positive [2]: 6.7%

B1: VEGF (ligand, UniProt P15692-4 27-191, looked up)
chain: APMAEGGGQNHHEVVKFMDVYQRSYCHPIETLVDIFQEYPDEIEYIFKPSCVPLMRCGGCCNDEGLECVPTEESNITMQIMRIKPHQGQHIGEMSFLQHNKCECRPKKDRARQENPCGPCSERRKHLFVQDPQTCKCSCKNTDSRCKARQLELNERTCRCDKPRR
notes: Soluble VEGF added to the nanoparticles
binding result [3]: no binding (tested: >80% VEGF unbound)
